Here are results for 1 molecule from patent publication US20040197334A1 (TECHNION RESEARCH AND DEVELOPMENT FOUNDATION, published 2004).

The term EC50 denotes the concentration giving half of the maximal effect. Higher therefore signals lower potency in that assay. Broadly, the IC50 is the concentration that inhibits the measured activity by half. The low end stands for inhibition by little substance, the high end for a need for much substance.

Several values for one entry are separate records, joined by “and”; a condition that tells them apart may be missing. Identical values can stand only once. No end group written: not given here.

One test deals with streptavidin (UniProt P22629 37-163). The test is described as follows: ELISA, FIG. 1b.
streptavidin, sequence (P22629 37-163 limits assumed): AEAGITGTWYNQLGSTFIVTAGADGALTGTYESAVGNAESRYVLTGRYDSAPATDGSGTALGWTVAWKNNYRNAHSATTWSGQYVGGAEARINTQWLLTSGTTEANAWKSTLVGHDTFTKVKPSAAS
Test [1] addresses T1, human P-glycoprotein (Pgp), 170 kDa, encoded by the mdr1 gene, on the surface of MDR human carcinoma cells … (human, UniProt P08183 1-1280). The test is described as follows: cell-based or functional assay.
The target of test [2] is T1, human P-glycoprotein (Pgp), 170 kDa, …. Description: flow cytometry on MDR, Pgp-overexpressing 2780^ADR cells, A2 scFv 50 µg/ml. A general note: A flow cytometer gives signals particle by particle.
In test [3] the target is T2, biotinylated target Pgp-derived peptide having the amino acid sequence of SEQ ID NO:1 (GEMTDIFANAGNL) (human, also: biotinylated, position not given here).
T2 construct: also called target peptide
T2 peptide: GEMTDIFANAGNL
Description: saturation ELISA on plate-bound biotinylated peptide; the filing calls the value the affinity constant. On the technique in general: An ELISA detects its analyte on a solid surface through an enzyme-linked reagent.

In test [4] the target is T2, biotinylated target Pgp-derived peptide …. The test is described as follows: competition radioimmunoassay, cold A2 scFv against [125I]-labeled A2 scFv on plate-bound peptide; the filing calls the value the affinity constant.

T1 sequence (P08183 whole entry): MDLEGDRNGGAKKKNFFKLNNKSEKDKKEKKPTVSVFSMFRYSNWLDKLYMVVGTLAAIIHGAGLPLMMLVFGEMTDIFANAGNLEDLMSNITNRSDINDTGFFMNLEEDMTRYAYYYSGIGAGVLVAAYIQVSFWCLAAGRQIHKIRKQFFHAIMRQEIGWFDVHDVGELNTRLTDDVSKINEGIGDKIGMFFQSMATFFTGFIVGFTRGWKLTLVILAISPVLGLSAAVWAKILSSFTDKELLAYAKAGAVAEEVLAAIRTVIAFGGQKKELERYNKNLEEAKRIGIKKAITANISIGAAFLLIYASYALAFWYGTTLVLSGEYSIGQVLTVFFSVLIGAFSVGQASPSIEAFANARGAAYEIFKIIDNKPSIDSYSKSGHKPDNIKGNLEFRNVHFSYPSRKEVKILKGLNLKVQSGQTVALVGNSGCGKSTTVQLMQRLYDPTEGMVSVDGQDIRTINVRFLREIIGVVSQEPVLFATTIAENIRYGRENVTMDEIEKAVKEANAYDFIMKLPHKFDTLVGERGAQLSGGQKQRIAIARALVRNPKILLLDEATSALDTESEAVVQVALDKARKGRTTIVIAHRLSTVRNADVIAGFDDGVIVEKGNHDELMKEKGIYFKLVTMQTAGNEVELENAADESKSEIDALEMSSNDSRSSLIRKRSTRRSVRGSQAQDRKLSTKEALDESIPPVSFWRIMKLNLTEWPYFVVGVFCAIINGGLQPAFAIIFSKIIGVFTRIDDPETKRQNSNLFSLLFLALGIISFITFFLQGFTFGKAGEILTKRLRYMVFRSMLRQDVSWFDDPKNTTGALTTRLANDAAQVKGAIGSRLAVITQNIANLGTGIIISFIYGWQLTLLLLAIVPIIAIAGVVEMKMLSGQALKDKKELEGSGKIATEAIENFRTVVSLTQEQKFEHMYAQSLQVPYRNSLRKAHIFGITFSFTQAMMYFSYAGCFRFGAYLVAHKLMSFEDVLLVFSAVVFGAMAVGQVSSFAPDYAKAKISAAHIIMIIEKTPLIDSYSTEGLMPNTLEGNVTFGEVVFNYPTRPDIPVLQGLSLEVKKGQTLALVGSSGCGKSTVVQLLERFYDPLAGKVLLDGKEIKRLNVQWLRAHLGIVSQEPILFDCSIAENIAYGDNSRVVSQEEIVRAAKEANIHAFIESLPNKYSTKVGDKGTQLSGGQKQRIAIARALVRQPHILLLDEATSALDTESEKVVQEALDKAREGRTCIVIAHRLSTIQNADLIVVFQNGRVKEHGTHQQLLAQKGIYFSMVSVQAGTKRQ

B1: A2 single-chain Fv (scFv) (scFv)
scFv: QVQLQQSGPDLVKPGASVKISCKASGYSFTGYYMHWVKQSHGKSLEWIGRANPNNGGTSYNQKFKGKAILTVDKSSSTAYMELRSLTSEDSAVYYCARWDGAYWGQGTLVTVSSGGGGSGGGGSGGGGSDVVMTQTPLSLPVSLGDQASISCRSSQSIVHSNGNTYLEWYLQKPGQSPKLLIYKVSNRFSGVPDRFSGSGSGTDFTLKISRVEAEDLGVYYCFQGSHVPFTFGSGTKLELKEQKLISEEDLNHHHHHH
notes: Soluble monomeric scFv of about 30 kDa, expressed in E. coli BL21 and purified from the periplasm; In the radioimmunoassay the tracer was labeled with 125I by the Bolton-Hunter reagent; also called A2 scFv; A2 scFv antibody
As for B1, in the test with streptavidin, the binding result is recorded as “no binding”. In test [1], the “concentration of A2 scFv that inhibits 50% drug-efflux activity (IC50), calcein accumulation in 2780^ADR cells” value was ~65 µg/ml and ~2.6 µM. For the same molecule, in test [2], the “fold increase in fluorescent intensity” value amounted to 10 fold. In test [3], this molecule yielded a 50% effective concentration (EC50) of approximately 150 nM. The IC50 in test [4] was approximately 130 nM.
